Test results published in the supplement of paper PMC10567573.

B1: CHMP4C (parent)
chain: TNIRLPNVPSSSLPAQPNRKPGMS

Variants of: B1
Assay: protein stability index of a GFP-peptide fusion (GPS, HEK-293T) (PSI 1-6); higher = more stable
Conditions: c terminus: a fixed tail appended
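Note: lentivirally expressed fusions sorted by FACS into six bins by GFP to DsRed ratio, PSI derived from sequencing read proportions per bin multiplied by bin number.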

Going from TNIRLPNVPTSSLPAQPNRKPGMS [S10T] to TNFRLPNVPSSSLPAQPNRKPGMS [I3F], the protein stability index rises from 4.1 to 4.2.

Going from TNIRLPAVPSSSLPAQPNRKPGMS [N7A] to TNILLPNVPSSSLPAQPNRKPGMS [R4L], the protein stability index falls from 4.61 to 4.26.

Compared with TNIRLPNVPSSSLPAGPNRKPGMS [Q16G], TNIRLPNVPSSSLWAQPNRKPGMS [P14W] is lower in protein stability index: 4.51 for the first, 4.01 for the second.

First: TNIRLPNVPSSSLPAQPNRKPLMS [G22L]
Second: TNIRLPNVPSSSLTAQPNRKPGMS [P14T]
The protein stability index of the first is lower: 4.22 for the first, 4.39 for the second.

First: TNIRLPNVPSSSLPAQPNRWPGMS [K20W]
Second: TNIRLPNVPSSALPAQPNRKPGMS [S12A]
The protein stability index of the first is lower: 3.41 for the first, 4.51 for the second.

Going from TNIRLPNVPSSSLPAQPNRKPSMS [G22S] to TNIRLPNVPSSSLPAQPNRKPGLS [M23L], the protein stability index rises from 4.08 to 4.88.

Compared with TNIRLPNVPSSSLPAQYNRKPGMS [P17Y], TNIRLPFVPSSSLPAQPNRKPGMS [N7F] is lower in protein stability index: 4.05 for the first, 3.38 for the second.

First: TNIRLPNVPSSSLPAQPNRLPGMS [K20L]
Second: TNIRLWNVPSSSLPAQPNRKPGMS [P6W]
The protein stability index of the first is higher: 4.41 for the first, 3.34 for the second.

Compared with TNIRLPNVPSSSLPAQPNRKEGMS [P21E], TNIVLPNVPSSSLPAQPNRKPGMS [R4V] is lower in protein stability index: 4.5 for the first, 4.35 for the second.

First: TNIRLPNVPSSSLPAQPNCKPGMS [R19C]
Second: TNIRLPNVPSSSLPAQPNRAPGMS [K20A]
The protein stability index of the first is lower: 4.27 for the first, 4.43 for the second.

First: TNIRLPNEPSSSLPAQPNRKPGMS [V8E]
Second: TAIRLPNVPSSSLPAQPNRKPGMS [N2A]
The protein stability index of the first is higher: 5.14 for the first, 4.67 for the second.

Going from TNIRLPNVPSSSLPAQPNRFPGMS [K20F] to TNIRLPNVPSSSLQAQPNRKPGMS [P14Q], the protein stability index rises from 3.79 to 4.98.

Compared with TKIRLPNVPSSSLPAQPNRKPGMS [N2K], TNIRLPNVPSSSLPAQRNRKPGMS [P17R] is lower in protein stability index: 4.24 for the first, 4.2 for the second.

First: TNIRLPNVPSSSLPAQPDRKPGMS [N18D]
Second: TNIRLPNVPSSSLPAQPNSKPGMS [R19S]
The protein stability index of the first is lower: 4.51 for the first, 4.71 for the second.

First: TNIRLPNVPSGSLPAQPNRKPGMS [S11G]
Second: TNIRLPNVPSSSLPAQPGRKPGMS [N18G]
The protein stability index of the first is higher: 4.51 for the first, 4.25 for the second.

Going from TNIRLPWVPSSSLPAQPNRKPGMS [N7W] to TNIRLPNVPSSSLPAIPNRKPGMS [Q16I], the protein stability index rises from 4.11 to 4.35.

First: TNIRLPNVPSSSLPAQPNRKPGES [M23E]
Second: TNIRLPNVPSSSLPAQPNEKPGMS [R19E]
The protein stability index of the first is higher: 5.61 for the first, 4.86 for the second.

First: TNIRLPNVPSSSRPAQPNRKPGMS [L13R]
Second: TNIRLPNVPSYSLPAQPNRKPGMS [S11Y]
The protein stability index of the first is higher: 4.82 for the first, 4.28 for the second.

Compared with TNIRLPNVPSTSLPAQPNRKPGMS [S11T], TNIRLPNVPSSSLPAQANRKPGMS [P17A] is higher in protein stability index: 3.48 for the first, 3.6 for the second.

Compared with TNIRLPNTPSSSLPAQPNRKPGMS [V8T], TNIRLPIVPSSSLPAQPNRKPGMS [N7I] is lower in protein stability index: 4.69 for the first, 3.95 for the second.

First: TNIRLENVPSSSLPAQPNRKPGMS [P6E]
Second: TNIRLPQVPSSSLPAQPNRKPGMS [N7Q]
The protein stability index of the first is higher: 4.48 for the first, 4.1 for the second.

Going from TNIRLPNHPSSSLPAQPNRKPGMS [V8H] to TNIRLPNVPSHSLPAQPNRKPGMS [S11H], the protein stability index falls from 4.77 to 4.6.

First: TNIRLDNVPSSSLPAQPNRKPGMS [P6D]
Second: TNIRLPNVPSKSLPAQPNRKPGMS [S11K]
The protein stability index of the first is lower: 4.36 for the first, 4.49 for the second.

Going from TNIRLPNVPSSSLPAQPNRKPGKS [M23K] to TNIRLPNVPSSSLPAFPNRKPGMS [Q16F], the protein stability index falls from 4.37 to 4.05.

Compared with TNIRLPNVPSSSLPAQPNYKPGMS [R19Y], TNIRLPNVPSSSLPAQPNRKPGMN [S24N] is higher in protein stability index: 3.94 for the first, 4.57 for the second.

First: TNWRLPNVPSSSLPAQPNRKPGMS [I3W]
Second: TNIGLPNVPSSSLPAQPNRKPGMS [R4G]
The protein stability index of the first is lower: 4.13 for the first, 4.69 for the second.

First: TNIRLPNVPSSSLPAQPNGKPGMS [R19G]
Second: TNIRLPNIPSSSLPAQPNRKPGMS [V8I]
The protein stability index of the first is lower: 4.49 for the first, 4.76 for the second.

Compared with ANIRLPNVPSSSLPAQPNRKPGMS [T1A], TNIRLPNVPSSSLPAQPNRKMGMS [P21M] is lower in protein stability index: 4.63 for the first, 4.32 for the second.

Going from TNIRLPMVPSSSLPAQPNRKPGMS [N7M] to TNIRLPNVPSSSLPAQPNRKPDMS [G22D], the protein stability index falls from 4.82 to 4.78.

Going from TNIRLPYVPSSSLPAQPNRKPGMS [N7Y] to TNIRLPNVPSSSLPAQPNRKIGMS [P21I], the protein stability index rises from 4.13 to 4.31.

Compared with TNIRLPNVPSSSLPCQPNRKPGMS [A15C], TNIRLPNVPSSSLPAQPLRKPGMS [N18L] is lower in protein stability index: 4.54 for the first, 4.25 for the second.

Compared with ENIRLPNVPSSSLPAQPNRKPGMS [T1E], TNIRLVNVPSSSLPAQPNRKPGMS [P6V] is lower in protein stability index: 3.75 for the first, 3.1 for the second.

Compared with TNIRLPNVPSSSLPAQCNRKPGMS [P17C], TNHRLPNVPSSSLPAQPNRKPGMS [I3H] is higher in protein stability index: 3.76 for the first, 4.62 for the second.

First: INIRLPNVPSSSLPAQPNRKPGMS [T1I]
Second: TNIRLPNVPSSSLYAQPNRKPGMS [P14Y]
The protein stability index of the first is lower: 3.03 for the first, 3.67 for the second.

Going from TNIRLPNVPSSSLPAQPNPKPGMS [R19P] to TNIRLPNVPSSSLPAQPNQKPGMS [R19Q], the protein stability index falls from 4.77 to 4.62.

Going from TNIRLPNVPSSTLPAQPNRKPGMS [S12T] to TNIRLPNVPSSSTPAQPNRKPGMS [L13T], the protein stability index rises from 4.07 to 5.11.

Going from TNIRLPNVPSSSLPNQPNRKPGMS [A15N] to TNIRLPKVPSSSLPAQPNRKPGMS [N7K], the protein stability index rises from 4.44 to 4.52.

First: RNIRLPNVPSSSLPAQPNRKPGMS [T1R]
Second: TNIRLPNVPSSSLPAQPNRKPGMT [S24T]
The protein stability index of the first is higher: 4.77 for the first, 4.62 for the second.

First: THIRLPNVPSSSLPAQPNRKPGMS [N2H]
Second: TNIRLPNVPSSSLPAQPNRKPGMD [S24D]
The protein stability index of the first is higher: 4.51 for the first, 3.96 for the second.

Compared with TNIRLPNVPSSSLPAQPWRKPGMS [N18W], TNPRLPNVPSSSLPAQPNRKPGMS [I3P] is higher in protein stability index: 3.42 for the first, 4.77 for the second.

First: TNIRLPNVPSSSLPAQPSRKPGMS [N18S]
Second: TMIRLPNVPSSSLPAQPNRKPGMS [N2M]
The protein stability index of the first is lower: 4.21 for the first, 4.66 for the second.

Going from TNIRLPNVPPSSLPAQPNRKPGMS [S10P] to TNIRLPNVPSSSLPAQPNRKPGMM [S24M], the protein stability index falls from 4.39 to 3.99.

First: TLIRLPNVPSSSLPAQPNRKPGMS [N2L]
Second: TNIRLPNVPSSSLPAQMNRKPGMS [P17M]
The protein stability index of the first is lower: 3.44 for the first, 4.56 for the second.

Going from TNIMLPNVPSSSLPAQPNRKPGMS [R4M] to TNIRLPNVPSSSLPVQPNRKPGMS [A15V], the protein stability index rises from 4.51 to 4.59.

Going from TNIRLKNVPSSSLPAQPNRKPGMS [P6K] to TNIRLPNVPSSDLPAQPNRKPGMS [S12D], the protein stability index rises from 4.23 to 4.67.

Compared with TNCRLPNVPSSSLPAQPNRKPGMS [I3C], TNIRLPNVPSSSLPAQPNRMPGMS [K20M] is lower in protein stability index: 4.55 for the first, 3.75 for the second.

First: TNIRLPNVPSDSLPAQPNRKPGMS [S11D]
Second: TNIRLPNWPSSSLPAQPNRKPGMS [V8W]
The protein stability index of the first is higher: 4.94 for the first, 4.19 for the second.
